The values below come from patent US20220193237A1 (Bristol-Myers Squibb, published 2022).

Where a chain is given by its changes, count along the chain named. Bounds are passed on as bounds.

By EC50 is commonly meant the concentration giving half of the maximal effect. In general, Kd refers to the concentration at which binding is half-saturated. Usually kon stands for the second-order rate constant of association. Low readings indicate slow association, high ones fast association.

T1: monomeric human CTLA-4 (human, UniProt P16410 36-161, limits assumed)
T1 construct: Soluble monomeric analyte in SPR; also called huCTLA-4
T1 sequence: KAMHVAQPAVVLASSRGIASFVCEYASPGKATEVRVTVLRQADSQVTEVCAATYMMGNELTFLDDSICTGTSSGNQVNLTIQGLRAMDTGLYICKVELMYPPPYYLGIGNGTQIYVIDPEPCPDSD

B1: ipi.106, non-fucosylated IgG1 (antibody, V domains shown)
VH: QVQLVESGGGVVQPGRSLRLSCAASGFTFSHYTMHWVRQAPGKGLEWVTFISYDGHNKYYADSVKGRFTISRDNSKNTLYLQMNSLRAEDTAIYYCARHGWLGPFDYWGQGTLVTVSS
VL: EIVLTQSPGTLSLSPGERATLSCRASQEVGESELAWYQQKPGQAPRLLIYGAFSRATGIPDRFSGSGSGTDFTLTISRLEPEDFAVYYCQQYGSSPWTFGQGTKVEIKR
modifications: non-fucosylated N-linked glycan
notes: Non-fucosylated full-length human IgG1; also called Ipi.106 IgG1-NF
B2: ipi.59 Fab (Fab, V domains shown)
VH: B1 VH with H31S, H99T
VL: not shown
notes: Tested as monovalent Fab
B3: ipi.7 Fab (Fab, V domains shown)
VH: B1 VH with H31S, T33H, H56N, N57H, H99T
VL: not shown
notes: Tested as monovalent Fab
B4: ipi.69 Fab (Fab, V domains shown)
VH: B1 VH with H99T
VL: not shown
notes: Tested as monovalent Fab
B5: ipi.93 Fab (Fab, V domains shown)
VH: B1 VH with H31S, H56N, H99T
VL: B1 VL with E31D
notes: Tested as monovalent Fab
B6: ipi.66 Fab (Fab, V domains shown)
VH: B1 VH with H31S, H99T
VL: not shown
notes: Tested as monovalent Fab
B7: ipi.82 Fab (Fab, V domains shown)
VH: B1 VH with H56N
VL: not shown
notes: Tested as monovalent Fab
B8: ipi.84 Fab (Fab, V domains shown)
VH: B1 VH
VL: not shown
notes: Tested as monovalent Fab
B9: ipi.94 Fab (Fab, V domains shown)
VH: B1 VH with H56N, H99T
VL: B1 VL with E31D
notes: Tested as monovalent Fab
B10: ipi.20 Fab (Fab, V domains shown)
VH: B1 VH with H31S, H56N, H99T
VL: not shown
notes: Tested as monovalent Fab
B11: ipi.71 Fab (Fab, V domains shown)
VH: B1 VH with H99T
VL: not shown
notes: Tested as monovalent Fab
B12: ipi.86 Fab (Fab, V domains shown)
VH: B1 VH with H56N
VL: not shown
notes: Tested as monovalent Fab
B13: ipi.92 Fab (Fab, V domains shown)
VH: B1 VH
VL: B1 VL with E31D
notes: Tested as monovalent Fab
B14: ipi.95 Fab (Fab, V domains shown)
VH: B1 VH with H99T
VL: B1 VL with E31D
notes: Tested as monovalent Fab
B15: ipi.88 Fab (Fab, V domains shown)
VH: B1 VH
VL: not shown
notes: Tested as monovalent Fab

The first experiment addresses T2, human CTLA-4 on 58 α-β-CTLA-4/CD3 ζ cells (human; mouse (mCD3ζ)).
T2 construct: also called 58αβ-hCTLA4/mCD3ζ cells; 58αβ-CTLA4/mCD3ζ cells
Kind of experiment: flow cytometry, non-fucosylated IgG1 on 58αβ-CTLA4/mCD3ζ cells, pH 7.2. The protocol: (§1) Antibodies were titrated from 100 μg/mL at a 1:4 dilution across 12 points in pH-specific buffers and incubated for 30-60 minutes. Buffers contained HBSS, 2% FBS^HI, 0.02% sodium azide, 2 mM EDTA, and sodium phosphate buffer (pH 5.4). Sodium phosphate buffer was added until desired pH was reached (7.2, 6.7, 6.2). Approximately 3e5 cells/well were tested for each cell line. […] Detection was done with a monovalent anti-hKappa secondary nanobody conjugated to Alexa647 and used at a dilution of 1:2000. Cells were fixed with BD Fix Solution I for 30 minutes prior to resuspension in pH-specific buffers and reading on the cytometer (BD Fortessa).
A general note: A flow cytometer gives signals particle by particle.
Take B1: the “Cmax (MFI)” value worked out at 62000 MFI and the concentration giving a half-maximal response (EC50) was 0.0115 µM.

For the next experiment, the target named is T1, monomeric human CTLA-4. Kind of experiment: SPR, captured Fab, pH 6.0 vs 7.4. The protocol: (§2) Binding of selected variants to human CTLA-4 was determined essentially as described in Example 3. […] Nomenclature and sequences for these antibodies is provided at Tables 6 and 7, and in the sequence listing as summarized at Table 8.
(§3) Monomeric human CTLA-4 was flowed as analyte with up to 2 μM top concentration. Between cycles, the capture surface was regenerated with 75 mM phosphoric acid. Experiments were run on a BIACORE® T200 instrument at 37° C. Running buffers were HEPES buffered saline for pH 7.4 experiments and Bis-Tris buffered saline for lower pH experiments. […] Double referenced sensorgrams were fitted to a 1:1 Langmuir binding model with mass transport to determine equilibrium dissociation constants (KD), as well as association (kₐ) and dissociation (kd) rate constants where appropriate.
On the technique in general: SPR reads the build-up and loss of mass on a sensor chip optically.
Turning to B2, the “KD 7.4/6 (APBP)” value is 1.9, the “ka 6/7.4” value was determined as 1.3 and the “t1/2 6/7.4” value worked out at 1.5.
In the case of B3, the “KD 7.4/6 (APBP)” value is 0.8, the “ka 6/7.4” value came out at 1.1 and the “t1/2 6/7.4” value was 0.7.
For B4 the same measures were 6.3, 1.3 and 4.7.
As for B5, the “KD 7.4/6 (APBP)” value is 16.
Take B6: the “KD 7.4/6 (APBP)” value turned out to be 7.6, the “ka 6/7.4” value stood at 1.8 and the “t1/2 6/7.4” value is 4.3.
On to B7, for which the “KD 7.4/6 (APBP)” value worked out at 4.4.
Same read-out and setting: under B8 stands 7.7; under B9, 52.
For the molecule B10, the “KD 7.4/6 (APBP)” value amounted to 2.6, the “ka 6/7.4” value was found to be 2 and the “t1/2 6/7.4” value is 1.3.
On to B11, for which the “KD 7.4/6 (APBP)” value was 25, the “ka 6/7.4” value was 2 and the “t1/2 6/7.4” value came to 12.2.
Regarding B12, the “KD 7.4/6 (APBP)” value worked out at 15.
Still for that read-out and setting: for B13 the value was greater than 59.
Same read-out and setting: for B14 the value was 99; for B15, 27.

The target in the next experiment is T2, human CTLA-4 on 58 α-β-CTLA-4/CD3 ζ …. Kind of experiment: flow cytometry, non-fucosylated IgG1 on 58αβ-CTLA4/mCD3ζ cells, pH 6.2. The protocol:
as §1
For the molecule B1, the “Cmax (MFI)” value was 88000 MFI and the EC50 amounted to 0.00315 µM.

Another experiment has as its target T1, monomeric human CTLA-4. As to the kind of experiment: SPR, captured Fab, pH 7.4. The method, then: as §2, §3
Take B2: the Kd turned out to be 0.021 µM, the kon was 810000 M⁻¹ s⁻¹ and the “t1/2” value is 41 s.
For B3 the same measures were 0.0015 µM, 1e+06 M⁻¹ s⁻¹ and 462 s.
Taken in the same sequence, the figures for B4 were 0.028 µM, 820000 M⁻¹ s⁻¹ and 30 s.
Regarding B5, the Kd stood at 0.21 µM.
On to B6, for which the affinity, expressed as Kd, was 0.026 µM; the kon was 700000 M⁻¹ s⁻¹; the “t1/2” value was 36 s.
Molecule B7 gave a Kd of 0.13 µM.
On to B8, for which the Kd turned out to be 0.12 µM.
On the same count and under the same terms, for B9 the value was 0.27 µM.
Take B10: the Kd was 0.084 µM, the kon stood at 790000 M⁻¹ s⁻¹ and the “t1/2” value stood at 11 s.
Taken in the same sequence, the figures for B11 were 0.039 µM, 740000 M⁻¹ s⁻¹ and 24 s.
The molecule B12 returned a Kd of 0.18 µM.
B13 displayed a Kd greater than 1 µM.
In turn, B14 returned an equilibrium dissociation constant (Kd) of 0.28 µM.
Still for that read-out and setting: for B15 the value was 0.17 µM.

The next experiment has as its target T1, monomeric human CTLA-4. As to the kind of experiment: SPR, captured Fab, pH 6.0. The protocol:
as §2, §3
In the case of B2, binding was characterised by a dissociation constant (Kd) of 0.011 µM, the kon turned out to be 1e+06 M⁻¹ s⁻¹ and the “t1/2” value was determined as 63 s.
Regarding B3, binding was put at a Kd of 0.0017 µM, the kon worked out at 1.2e+06 M⁻¹ s⁻¹ and the “t1/2” value amounted to 347 s.
For the molecule B4, binding was characterised by a dissociation constant (Kd) of 0.0044 µM, the kon was 1.1e+06 M⁻¹ s⁻¹ and the “t1/2” value was 144 s.
As to B5, the dissociation constant Kd was 0.013 µM, the kon amounted to 1.7e+06 M⁻¹ s⁻¹ and the “t1/2” value is 32 s.
Taken in the same sequence, the figures for B6 were 0.0035 µM, 1.2e+06 M⁻¹ s⁻¹ and 161 s.
Consider B7, for which the Kd is 0.031 µM, the kon was found to be 1.4e+06 M⁻¹ s⁻¹ and the “t1/2” value stood at 16 s.
Taken in the same sequence, the figures for B8 were 0.016 µM, 1.3e+06 M⁻¹ s⁻¹ and 35 s.
Taken in the same sequence, the figures for B9 were 0.0052 µM, 1.9e+06 M⁻¹ s⁻¹ and 70 s.
B10: binding was characterised by a dissociation constant (Kd) of 0.032 µM, the kon turned out to be 1.6e+06 M⁻¹ s⁻¹ and the “t1/2” value turned out to be 14 s.
For B11 the same measures were 0.0016 µM, 1.5e+06 M⁻¹ s⁻¹ and 289 s.
For B12 the same measures were 0.012 µM, 1.6e+06 M⁻¹ s⁻¹ and 36 s.
For B13 the same measures were 0.017 µM, 1.8e+06 M⁻¹ s⁻¹ and 22 s.
Regarding B14, the affinity, expressed as Kd, was 0.0028 µM; the kon worked out at 1.9e+06 M⁻¹ s⁻¹; the “t1/2” value came to 126 s.
Taken in the same sequence, the figures for B15 were 0.0065 µM, 2e+06 M⁻¹ s⁻¹ and 53 s.

The next experiment deals with T2, human CTLA-4 on 58 α-β-CTLA-4/CD3 ζ …. As to the kind of experiment: flow cytometry, non-fucosylated IgG1 on 58αβ-CTLA4/mCD3ζ cells, pH 6.7. The method, then:
as §1
Take B1: the “Cmax (MFI)” value came out at 80200 MFI and the midpoint of the response, the EC50, lay at 0.00437 µM.
